Assay results: the RNAGym collection of RNA variant scans (doi:10.7554/elife.80360)

B1: Hairpin Ribozyme (parent)
chain: GUCCUCUUUCACGUGCGCGUGAAAGAGAGAAGUGAACCAGAGAAACACACGUUGUGGUAUAUUACCUGGUA

Variants of: B1
Assay: self-cleavage, relative activity (ratio to wild type); higher = more cleavage; co-transcriptional

Q: Which self-cleavage does the source give for GUCCUCUUUCACGUGCGCGUGAAAGAGAGAAGUGAACCAGAGAAACACACGUUGUGGUAUGUUUCCUGGUA [A61G A64U] here?
A: 0.202

Q: With GUCCUCUUUCACGUGCGCGUGAAAGAGAGAAGUGAACCAGAGAAACACACGUUGUGGUAUACUACCAGGUA [U62C U67A] as the variant, how does the self-cleavage read?
A: 0.166

Q: With GUCCUCUUUCACGUGCGCGUGAAAGAGAGAAGUGAACCAGAGAAACACACGUUGUGGUAUAAUACCUGGAA [U62A U70A] as the variant, how does the self-cleavage read?
A: 0.143

Q: Which self-cleavage does the source give for GUCCUCUUUCACGUGCGCGUGAAAGAGAGAAGUGAACCAGAGAAACACACGUUGUGGUAGAUGACCUGGUA [U60G U63G] here?
A: 0.0801

Q: Which self-cleavage does the source give for GUCCUCUUUCACGUGCGCGUGAAAGAGAGAAGUGAACCAGAGAAACACACGUUGUGGUAGAUAACCUGGUA [U60G U63A] here?
A: 0.173

Q: For GUCCUCUUUCACGUGCGCGUGAAAGAGAGAAGUGAACCAGAGAAACACACGUUGUGGUAUGUUACCUGGUC [A61G A71C], which self-cleavage is on record?
A: 0.308

Q: With GUCCUCUUUCACGUGCGCGUGAAAGAGAGAAGUGAACCAGAGAAACACACGUUGUGGUAUGUUACCUGGUG [A61G A71G] as the variant, how does the self-cleavage read?
A: 0.168

Q: For GUCCUCUUUCACGUGCGCGUGAAAGAGAGAAGUGAACCAGAGAAACACACGUUGUGGUAUAGUACUUGGUA [U62G C66U], which self-cleavage is on record?
A: 0.12

Q: With GUCCUCUUUCACGUGCGCGUGAAAGAGAGAAGUGAACCAGAGAAACACACGUUGUGGUAGAUUAUCUGGUA [U60G C65U] as the variant, how does the self-cleavage read?
A: 0.183

Q: With GUCCUCUUUCACGUGCGCGUGAAAGAGAGAAGUGAACCAGAGAAACACACGUUGUGGUAGAUUACCUUGUA [U60G G68U] as the variant, how does the self-cleavage read?
A: 0.296

Q: Which self-cleavage does the source give for GUCCUCUUUCACGUGCGCGUGAAAGAGAGAAGUGAACCAGAGAAACACACGUUGUGGUAUGUUACCUGGCA [A61G U70C] here?
A: 0.146

Q: With GUCCUCUUUCACGUGCGCGUGAAAGAGAGAAGUGAACCAGAGAAACACACGUUGUGGUAUUUUACCUCGUA [A61U G68C] as the variant, how does the self-cleavage read?
A: 0.191

Q: Which self-cleavage does the source give for GUCCUCUUUCACGUGCGCGUGAAAGAGAGAAGUGAACCAGAGAAACACACGUUGUGGUAUUUUACCUAGUA [A61U G68A] here?
A: 0.219

Q: For GUCCUCUUUCACGUGCGCGUGAAAGAGAGAAGUGAACCAGAGAAACACACGUUGUGGUAUCUUACCAGGUA [A61C U67A], which self-cleavage is on record?
A: 0.252

Q: For GUCCUCUUUCACGUGCGCGUGAAAGAGAGAAGUGAACCAGAGAAACACACGUUGUGGUAUCUUACCCGGUA [A61C U67C], which self-cleavage is on record?
A: 0.107

Q: For GUCCUCUUUCACGUGCGCGUGAAAGAGAGAAGUGAACCAGAGAAACACACGUUGUGGUAUACUACCUGCUA [U62C G69C], which self-cleavage is on record?
A: 0.0631

Q: With GUCCUCUUUCACGUGCGCGUGAAAGAGAGAAGUGAACCAGAGAAACACACGUUGUGGUAUAAUACAUGGUA [U62A C66A] as the variant, how does the self-cleavage read?
A: 0.12

Q: With GUCCUCUUUCACGUGCGCGUGAAAGAGAGAAGUGAACCAGAGAAACACACGUUGUGGUAUGCUACCUGGUA [A61G U62C] as the variant, how does the self-cleavage read?
A: 0.0932

Q: Which self-cleavage does the source give for GUCCUCUUUCACGUGCGCGUGAAAGAGAGAAGUGAACCAGAGAAACACACGUUGUGGUAUGUUACCUGAUA [A61G G69A] here?
A: 0.16

Q: Which self-cleavage does the source give for GUCCUCUUUCACGUGCGCGUGAAAGAGAGAAGUGAACCAGAGAAACACACGUUGUGGUAUUUUACCUGGAA [A61U U70A] here?
A: 0.175

Q: For GUCCUCUUUCACGUGCGCGUGAAAGAGAGAAGUGAACCAGAGAAACACACGUUGUGGUAGAUUACUUGGUA [U60G C66U], which self-cleavage is on record?
A: 0.361

Q: For GUCCUCUUUCACGUGCGCGUGAAAGAGAGAAGUGAACCAGAGAAACACACGUUGUGGUAGAUUACAUGGUA [U60G C66A], which self-cleavage is on record?
A: 0.0537

Q: Which self-cleavage does the source give for GUCCUCUUUCACGUGCGCGUGAAAGAGAGAAGUGAACCAGAGAAACACACGUUGUGGUAGCUUACCUGGUA [U60G A61C] here?
A: 0.315

Q: Which self-cleavage does the source give for GUCCUCUUUCACGUGCGCGUGAAAGAGAGAAGUGAACCAGAGAAACACACGUUGUGGUAUAAUUCCUGGUA [U62A A64U] here?
A: 0.197

Q: For GUCCUCUUUCACGUGCGCGUGAAAGAGAGAAGUGAACCAGAGAAACACACGUUGUGGUAUAAUGCCUGGUA [U62A A64G], which self-cleavage is on record?
A: 0.093

Q: With GUCCUCUUUCACGUGCGCGUGAAAGAGAGAAGUGAACCAGAGAAACACACGUUGUGGUAUAUAACAUGGUA [U63A C66A] as the variant, how does the self-cleavage read?
A: 0.118

Q: For GUCCUCUUUCACGUGCGCGUGAAAGAGAGAAGUGAACCAGAGAAACACACGUUGUGGUAGAUUACCUGGUU [U60G A71U], which self-cleavage is on record?
A: 0.395

Q: With GUCCUCUUUCACGUGCGCGUGAAAGAGAGAAGUGAACCAGAGAAACACACGUUGUGGUACAUUACCGGGUA [U60C U67G] as the variant, how does the self-cleavage read?
A: 0.207

Q: For GUCCUCUUUCACGUGCGCGUGAAAGAGAGAAGUGAACCAGAGAAACACACGUUGUGGUAUUUUAGCUGGUA [A61U C65G], which self-cleavage is on record?
A: 0.193

Q: For GUCCUCUUUCACGUGCGCGUGAAAGAGAGAAGUGAACCAGAGAAACACACGUUGUGGUAUUUUAUCUGGUA [A61U C65U], which self-cleavage is on record?
A: 0.188

Q: Which self-cleavage does the source give for GUCCUCUUUCACGUGCGCGUGAAAGAGAGAAGUGAACCAGAGAAACACACGUUGUGGUAUAGAACCUGGUA [U62G U63A] here?
A: 0.0488

Q: With GUCCUCUUUCACGUGCGCGUGAAAGAGAGAAGUGAACCAGAGAAACACACGUUGUGGUAUAGGACCUGGUA [U62G U63G] as the variant, how does the self-cleavage read?
A: 0.191

Q: With GUCCUCUUUCACGUGCGCGUGAAAGAGAGAAGUGAACCAGAGAAACACACGUUGUGGUAUAGCACCUGGUA [U62G U63C] as the variant, how does the self-cleavage read?
A: 0.243

Q: With GUCCUCUUUCACGUGCGCGUGAAAGAGAGAAGUGAACCAGAGAAACACACGUUGUGGUAUAGUGCCUGGUA [U62G A64G] as the variant, how does the self-cleavage read?
A: 0.166

Q: With GUCCUCUUUCACGUGCGCGUGAAAGAGAGAAGUGAACCAGAGAAACACACGUUGUGGUAUAGUCCCUGGUA [U62G A64C] as the variant, how does the self-cleavage read?
A: 0.2

Q: Which self-cleavage does the source give for GUCCUCUUUCACGUGCGCGUGAAAGAGAGAAGUGAACCAGAGAAACACACGUUGUGGUAUAGUUCCUGGUA [U62G A64U] here?
A: 0.0808

Q: Which self-cleavage does the source give for GUCCUCUUUCACGUGCGCGUGAAAGAGAGAAGUGAACCAGAGAAACACACGUUGUGGUAUAGUAACUGGUA [U62G C65A] here?
A: 0.157

Q: For GUCCUCUUUCACGUGCGCGUGAAAGAGAGAAGUGAACCAGAGAAACACACGUUGUGGUAUAGUAGCUGGUA [U62G C65G], which self-cleavage is on record?
A: 0.223
